Assay results taken from paper PMC12102759 (2025).

B1: ATXN2 peptide 913-928 (Ataxin-2), 16-mer library wild type / PABPC1 PABC (PABPC1 PABC domain, residues 544-623) (parent complex)
chain 1: TLNPNAKEFNPRSFSQ
chain 2: PLTASMLASAPPQEQKQMLGERLFPLIQAMHPTLAGKITGMLLEIDNSELLHMLESPESLRSKVDEAVAVLQAHQAKEAA
B2: CBL peptide 540-555 (E3 ubiquitin-protein ligase CBL), 16-mer library wild type / YES SH3 (YES1 SH3 domain, residues 90-152) (parent complex)
chain 1: RDLPPPPPPDRPYSVG
chain 2: not shown

Variants of: B1
Assay: proteomic peptide phage display deep mutational scan (ProP-PD DMS): M13 P8 16-mer library selected against immobilised GST-tagged bait for four days (rounds), NGS of the eluted pools per day and pseudo-replica; bait immobilised on MaxiSorp plates (10 µg), library pre-cleared on GST, 2 h binding at 4 °C, five washes; one round per day, days 1-4; value from days 2 and 3

First: chain 1 TLNPNAKEFNPRPFSQ [chain 1 S13P]
Second: chain 1 TLNPNAKEFAPRSFSQ [chain 1 N10A]
The screen value of the first is higher: 0.0016 average fractional NGS count over selection days 2 and 3 (reads of this peptide / all reads for the bait, averaged over … for the first, 0.000525 average fractional NGS count over selection days 2 and 3 (reads of this peptide / all reads for the bait, averaged over … for the second.

First: chain 1 TLNPNAKEFPPRSFSQ [chain 1 N10P]
Second: chain 1 TLNPNAKEFNYRSFSQ [chain 1 P11Y]
The screen value of the first is higher: 0.000829 average fractional NGS count over selection days 2 and 3 (reads of this peptide / all reads for the bait, averaged over … for the first, 0.000724 average fractional NGS count over selection days 2 and 3 (reads of this peptide / all reads for the bait, averaged over … for the second.

Going from chain 1 TLNPNAKEFNSRSFSQ [chain 1 P11S] to chain 1 TLNPQAKEFNPRSFSQ [chain 1 N5Q], the screen value rises from 0.000475 average fractional NGS count over selection days 2 and 3 (reads of this peptide / all reads for the bait, averaged over … to 0.00052 average fractional NGS count over selection days 2 and 3 (reads of this peptide / all reads for the bait, averaged over ….

First: chain 1 TLNPHAKEFNPRSFSQ [chain 1 N5H]
Second: chain 1 TLNPNAKEFNPRSFPQ [chain 1 S15P]
The screen value of the first is lower: 0.00507 average fractional NGS count over selection days 2 and 3 (reads of this peptide / all reads for the bait, averaged over … for the first, 0.012 average fractional NGS count over selection days 2 and 3 (reads of this peptide / all reads for the bait, averaged over … for the second.

First: chain 1 TLNPNAKEFNPRSYSQ [chain 1 F14Y]
Second: chain 1 TLNPNAKEFNPRSISQ [chain 1 F14I]
The screen value of the first is higher: 0.00139 average fractional NGS count over selection days 2 and 3 (reads of this peptide / all reads for the bait, averaged over … for the first, 0.000362 average fractional NGS count over selection days 2 and 3 (reads of this peptide / all reads for the bait, averaged over … for the second.

First: chain 1 TLNPNAKEFNPHSFSQ [chain 1 R12H]
Second: chain 1 TLNPNAKAFNPRSFSQ [chain 1 E8A]
The screen value of the first is higher: 0.00563 average fractional NGS count over selection days 2 and 3 (reads of this peptide / all reads for the bait, averaged over … for the first, 0.000246 average fractional NGS count over selection days 2 and 3 (reads of this peptide / all reads for the bait, averaged over … for the second.

First: chain 1 ALNPNAKEFNPRSFSQ [chain 1 T1A]
Second: chain 1 TLNINAKEFNPRSFSQ [chain 1 P4I]
The screen value of the first is lower: 0.00105 average fractional NGS count over selection days 2 and 3 (reads of this peptide / all reads for the bait, averaged over … for the first, 0.00226 average fractional NGS count over selection days 2 and 3 (reads of this peptide / all reads for the bait, averaged over … for the second.

In the case of chain 1 TLNLNAKEFNPRSFSQ [chain 1 P4L], the screen value is reported as 0.000532 average fractional NGS count over selection days 2 and 3 (reads of this peptide / all reads for the bait, averaged over ….

Variants of: B2
Assay: as above

Going from chain 1 L3V to chain 1 L3G, the screen value falls from 0.00179 average fractional NGS count over selection days 2 and 3 (reads of this peptide / all reads for the bait, averaged over … to 7.18e-05 average fractional NGS count over selection days 2 and 3 (reads of this peptide / all reads for the bait, averaged over ….

First: chain 1 L3M
Second: chain 1 L3I
The screen value of the first is lower: 0.00032 average fractional NGS count over selection days 2 and 3 (reads of this peptide / all reads for the bait, averaged over … for the first, 0.00353 average fractional NGS count over selection days 2 and 3 (reads of this peptide / all reads for the bait, averaged over … for the second.

Compared with chain 1 L3N, chain 1 L3S is lower in screen value: 7.55e-05 average fractional NGS count over selection days 2 and 3 (reads of this peptide / all reads for the bait, averaged over … for the first, 6.99e-05 average fractional NGS count over selection days 2 and 3 (reads of this peptide / all reads for the bait, averaged over … for the second.

First: chain 1 R11F
Second: chain 1 R11E
The screen value of the first is higher: 0.00146 average fractional NGS count over selection days 2 and 3 (reads of this peptide / all reads for the bait, averaged over … for the first, 0.000556 average fractional NGS count over selection days 2 and 3 (reads of this peptide / all reads for the bait, averaged over … for the second.

Compared with chain 1 R11H, chain 1 R11G is higher in screen value: 0.000484 average fractional NGS count over selection days 2 and 3 (reads of this peptide / all reads for the bait, averaged over … for the first, 0.00318 average fractional NGS count over selection days 2 and 3 (reads of this peptide / all reads for the bait, averaged over … for the second.

Going from chain 1 R11Q to chain 1 R11V, the screen value rises from 0.00199 average fractional NGS count over selection days 2 and 3 (reads of this peptide / all reads for the bait, averaged over … to 0.00622 average fractional NGS count over selection days 2 and 3 (reads of this peptide / all reads for the bait, averaged over ….

Going from chain 1 R11Y to chain 1 R11I, the screen value rises from 0.000176 average fractional NGS count over selection days 2 and 3 (reads of this peptide / all reads for the bait, averaged over … to 0.000246 average fractional NGS count over selection days 2 and 3 (reads of this peptide / all reads for the bait, averaged over ….

Compared with chain 1 R11S, chain 1 P4Q is lower in screen value: 0.000485 average fractional NGS count over selection days 2 and 3 (reads of this peptide / all reads for the bait, averaged over … for the first, 0.000154 average fractional NGS count over selection days 2 and 3 (reads of this peptide / all reads for the bait, averaged over … for the second.

First: chain 1 P4I
Second: chain 1 P4V
The screen value of the first is higher: 0.000839 average fractional NGS count over selection days 2 and 3 (reads of this peptide / all reads for the bait, averaged over … for the first, 0.000427 average fractional NGS count over selection days 2 and 3 (reads of this peptide / all reads for the bait, averaged over … for the second.

Going from chain 1 P4A to chain 1 P4F, the screen value falls from 0.000327 average fractional NGS count over selection days 2 and 3 (reads of this peptide / all reads for the bait, averaged over … to 9.76e-05 average fractional NGS count over selection days 2 and 3 (reads of this peptide / all reads for the bait, averaged over ….

First: chain 1 P4T
Second: chain 1 P4H
The screen value of the first is higher: 0.00019 average fractional NGS count over selection days 2 and 3 (reads of this peptide / all reads for the bait, averaged over … for the first, 8.18e-05 average fractional NGS count over selection days 2 and 3 (reads of this peptide / all reads for the bait, averaged over … for the second.

First: chain 1 V15E
Second: chain 1 V15P
The screen value of the first is lower: 0.00362 average fractional NGS count over selection days 2 and 3 (reads of this peptide / all reads for the bait, averaged over … for the first, 0.00539 average fractional NGS count over selection days 2 and 3 (reads of this peptide / all reads for the bait, averaged over … for the second.

First: chain 1 V15L
Second: chain 1 V15R
The screen value of the first is higher: 0.000286 average fractional NGS count over selection days 2 and 3 (reads of this peptide / all reads for the bait, averaged over … for the first, 7.8e-05 average fractional NGS count over selection days 2 and 3 (reads of this peptide / all reads for the bait, averaged over … for the second.

First: chain 1 V15F
Second: chain 1 V15Y
The screen value of the first is higher: 0.00636 average fractional NGS count over selection days 2 and 3 (reads of this peptide / all reads for the bait, averaged over … for the first, 0.00192 average fractional NGS count over selection days 2 and 3 (reads of this peptide / all reads for the bait, averaged over … for the second.

First: chain 1 V15N
Second: chain 1 V15T
The screen value of the first is higher: 0.00181 average fractional NGS count over selection days 2 and 3 (reads of this peptide / all reads for the bait, averaged over … for the first, 0.000212 average fractional NGS count over selection days 2 and 3 (reads of this peptide / all reads for the bait, averaged over … for the second.

Going from chain 1 P12K to chain 1 P12V, the screen value rises from 0.00165 average fractional NGS count over selection days 2 and 3 (reads of this peptide / all reads for the bait, averaged over … to 0.002 average fractional NGS count over selection days 2 and 3 (reads of this peptide / all reads for the bait, averaged over ….

Going from chain 1 P12D to chain 1 P12G, the screen value falls from 0.00117 average fractional NGS count over selection days 2 and 3 (reads of this peptide / all reads for the bait, averaged over … to 0.000184 average fractional NGS count over selection days 2 and 3 (reads of this peptide / all reads for the bait, averaged over ….

Compared with chain 1 P12L, chain 1 P12F is higher in screen value: 0.0025 average fractional NGS count over selection days 2 and 3 (reads of this peptide / all reads for the bait, averaged over … for the first, 0.00458 average fractional NGS count over selection days 2 and 3 (reads of this peptide / all reads for the bait, averaged over … for the second.

First: chain 1 P12Y
Second: chain 1 P12M
The screen value of the first is lower: 0.000171 average fractional NGS count over selection days 2 and 3 (reads of this peptide / all reads for the bait, averaged over … for the first, 0.0175 average fractional NGS count over selection days 2 and 3 (reads of this peptide / all reads for the bait, averaged over … for the second.

Compared with chain 1 P12A, chain 1 P12S is lower in screen value: 0.00443 average fractional NGS count over selection days 2 and 3 (reads of this peptide / all reads for the bait, averaged over … for the first, 0.00406 average fractional NGS count over selection days 2 and 3 (reads of this peptide / all reads for the bait, averaged over … for the second.

First: chain 1 P12W
Second: chain 1 P12N
The screen value of the first is higher: 0.00363 average fractional NGS count over selection days 2 and 3 (reads of this peptide / all reads for the bait, averaged over … for the first, 0.000558 average fractional NGS count over selection days 2 and 3 (reads of this peptide / all reads for the bait, averaged over … for the second.

Compared with chain 1 D2M, chain 1 D2Y is lower in screen value: 0.0201 average fractional NGS count over selection days 2 and 3 (reads of this peptide / all reads for the bait, averaged over … for the first, 0.00341 average fractional NGS count over selection days 2 and 3 (reads of this peptide / all reads for the bait, averaged over … for the second.

Compared with chain 1 D2E, chain 1 D2A is higher in screen value: 0.0027 average fractional NGS count over selection days 2 and 3 (reads of this peptide / all reads for the bait, averaged over … for the first, 0.00577 average fractional NGS count over selection days 2 and 3 (reads of this peptide / all reads for the bait, averaged over … for the second.

Going from chain 1 D2N to chain 1 D2G, the screen value falls from 0.00453 average fractional NGS count over selection days 2 and 3 (reads of this peptide / all reads for the bait, averaged over … to 0.00344 average fractional NGS count over selection days 2 and 3 (reads of this peptide / all reads for the bait, averaged over ….

Compared with chain 1 D2K, chain 1 D2S is higher in screen value: 0.000177 average fractional NGS count over selection days 2 and 3 (reads of this peptide / all reads for the bait, averaged over … for the first, 0.00111 average fractional NGS count over selection days 2 and 3 (reads of this peptide / all reads for the bait, averaged over … for the second.

Compared with chain 1 D2F, chain 1 D2V is higher in screen value: 0.000357 average fractional NGS count over selection days 2 and 3 (reads of this peptide / all reads for the bait, averaged over … for the first, 0.00212 average fractional NGS count over selection days 2 and 3 (reads of this peptide / all reads for the bait, averaged over … for the second.

Going from chain 1 D2R to chain 1 D2P, the screen value rises from 0.000105 average fractional NGS count over selection days 2 and 3 (reads of this peptide / all reads for the bait, averaged over … to 0.00891 average fractional NGS count over selection days 2 and 3 (reads of this peptide / all reads for the bait, averaged over ….

Going from chain 1 S14L to chain 1 S14V, the screen value falls from 0.0182 average fractional NGS count over selection days 2 and 3 (reads of this peptide / all reads for the bait, averaged over … to 7.3e-05 average fractional NGS count over selection days 2 and 3 (reads of this peptide / all reads for the bait, averaged over ….

For chain 1 S14Q, the screen value was 0.000166 average fractional NGS count over selection days 2 and 3 (reads of this peptide / all reads for the bait, averaged over ….
